Experiment: label from the status in PepcDB records

| Sequence | protein production |
| --- | --- |
| ASATETNTAPSADTQAPKPVNTVTSDVDCSVSAAWGLYKFNQKSNFSAEFEMPESVKAGTGFDALIKIKDISVSNDNLSGYKNAKLTKSSIRINVGKNVKLDGNQPGLSLSNGVLSINDHLKASLEGNSLRISAAPITVRLQALTEGTLTFIPEKTILTNTASVDGYTANTTCTTNADKPFATVKVDPADGLTITAPESASIKQDVQITATVPEKLNEKMDGKVQFFVNHIAAGDPVPVTEDNKASTSIIFDTSGSKTITARFIDAEGYNPAPDGETIIPVVTELDTKKPEDTDSYTGLINGSATSLLKPAKVMPGEKVSVSASLLPNKAPIRVYEIGINAPEDVKYIDGTGKTNYSSKLATTGSVFSSPGSGYYDPEWKNESKKPNESYRGFHSDTSYSVVDTSPQTVSAEFEIPKTLAPGIYMFQMGVYKYSNSLKDLVSIPETAFEIAGPDLPALPERKIKPQPEETPEVSDGSSTAKLVKSP | not failed |
| MTLGLKDLYYAVCTEADGAESYGTPKKMAEAMSADLSVKTADGSLYADDTLSESVTEFASGTLKLGIKDLTPEVLAELLGQAVDKNSVVWAGKEDEPPYVAVGFRAKKTGGKYRYVWLLKAKFKVPSEKYETKGESIKFNTPDIEASFTTRKKDNLWKADFVGTEESAAAKTWFTAVPEKAAAMESVLEHHHHHH | not failed |
| MTAPKVFVSHASEDKARFVVDFARRLRENGVDAWLDQWEMKPGDSLVDKIFEEGLREARAVVIVLSATSVRKPWVREELNASVVNRISRGTKLIPVVIDDCDVPEALRSTVWQKIDNLDDYGESLQRILSVIFDVTDKPALGAPPARFAGPAPLIAGLSRVDDLVIRVIARRQIDEGAGLVEWDRLKAEPILRDVPQQELLDSLEILKRHDFIRVREVIGALHVVLTDLGFLKFAEAYVDDYQGTVNQIAALLVNENVRQNRELAARVNKPVAFIDFVLNLMESNGYIKVSKYIGGQSHVREVSASLRRALQSA | failed |
| DRTAILGGTFTPIHNGHRALLHKAFQTASHDGSGDGHVIVGLTSPELATETRSDPTHVKQLGAYDDRRSALASELDQLGEPYTATYEIVRLDDTQGPAATRADVDALVASPEAKAQRRAYELNQQRRESGLHPLEIHTPPFVVAEDGTRISSTRIRNGEIDVHGRLLD | failed |
| MAAVVAATALKSRGARNARVLRGILAGATANKVSHNRTRALQSHSSSEGKEEPEPLSPELEYIPRKRGKNPMKAVGLAWYSLYTRTWLGYLFYRQQLRRARNRYPKGHSKTQPRLFNGVKVLPIPVLSDNYSYLIIDTQAQLAVAVDPSDPRAVQASIEKEGVTLVAILCTHKHWDHSGGNRDLSRRHRDCRVYGSPQDGIPYLTHPLCHQDVVSVGRLQIRALATPGHTQGHLVYLLDGEPYKGPSCLFSGDLLFLSGCGRTFEGNAETMLSSLDTVLGLGDDTLLWPGHEYAEENLGFAGVVEPENLARERKMQWVQRQRLERKGTCPSTLGEERSYNPFLRTHCLALQEALGPGPGPTGDDDYSRAQLLEELRRLKDMHKSK | failed |
| MITGKRFKFILLTFIFAAGLFFTQAGILFAQDKPDALKLYRQGRSLDSIGRREDARAAYLSAIEICRNELKVNSKNMDSYAVYTWCLFRLGRYKDTELVCSDALKIGRDARIIETLAEAQFFLGNYKDSLRNMEMYIEMAPNGERISVAHFFVGEIYRNTKKYHKADIAYSISVHLEPSNSLWWYRLGIVREAAGEKEGAIAAYQTAVKLRPEFKEAAEALKRVKI | failed |
| MCNETWQSRAEEYIDDSRRLGYALTTTSAYLLSFARFVDQRGHSGALTSDIILDWAQSTDSKKPTTWTKRLINIRRFISHCSRVDGKSEVPRVDVFGRPKGRPTPHIYTELEISELLAAARELPGTLPSATYETLFGLLASTGLRLSEALHLRCSDVDLRSGRLIVRQGKLGKSRLVPLHATVCEVLSRYLGVRQQLPLTSESYFFVSQTGGLLPRRTVEGVFIRLRTKLGWAPRGNWRAPRIHDLRHTFICRRVTQWHKEGADIDNAMLYVSTYVGHVAVTYTYWYLTGIPELMTVVGQRFEAFAESARGAENAE | failed |
| MTQQHPHLLEPELGEFLTALKNTPSRLTARTAAWLCIWTASRPGMVRLAEWKEFDLDKATWTTPAAKMKMRRDFVCPLPHQAIAALKELHCLTGRSRWLFPGVGAKNPTISENTINKVFATIGYKGRLVGHGTRHTASTLLREHGWPKEHVEAQLAHKEEGLEHHHHHH | failed |
| MREPYYKKLLGIKNYLIRKNYPEELEILIPKYVEENKELRGCIDCLSCLSVCPAREVSDYPGPTFMRQLARFAFDKRDEDGREITAYFENIYNCTTCAKCVEVCPKEIDIVHRAIEKLRALAFSKGYLEHHHHHH | failed |
| MTSTPGISDSLLSSMNGSGANNNTSAISETQDRFMKLLIAQMKNQDPLNPMDNAEVTSQMAQLSTVTGIEKMNASLSTFISSMQATQALQASSLIGNTVLVEGNSTYLAPAETEGESAAYLGVELPIGADKLTVNIKNGAGNVVKTITVTNQPAGISSLGWNGYGDDGTKLPDGRYTIEATATTGNSSVASTPLSYEQVMSVSTGSDGVKLNLSNLAAITTDQIKQIF | not failed |
| MVEPSLVLYGAPYERAVEVLEETLRETGARYALLIDRKGFVLAHKEALWAPKPPPLDTLVTLVAGNAAATQALAKLLGEARFQEEVHQGERMGLYVDEAGEHALLVLVFDETAPLGKVKLHGKRAAEALARIAEEALANPPRLALDTEYREGAEALLDDLLRN | not failed |
| MAEERRIDWSSLWKKEDWWAFWLGMLLFVLCLATAYGADIMGWVVKSSTWVDVSKAMGPTSKNFAYLGPIGSFVVSWLVLLILTTIGAVAMGWKGGKFAAAFTVIFILTWICWVIGHNAYIAATDPAKAGVPWSLRMTGEAGYIFALILGLIIGNFFKGFANWLKEAAKPEWFIKTAIVLLGAVVGIKAPTIPPEILYNYLFRGLCAIVEAYLIYWALVYWVARRYFGFSREWAAPLASGISICGVSAAIATGGAIRARPVVPVMVASLVIVFAVVELLFLPFLAATFLQHQPLVAGAWMGLAVKTDGAATASVKWLKL | failed |
| MDALVSTKANSIAYQRSTVIIPAYNEEKRLMPVLYELCEYIRSNSLEWKVMVSIDGDDGTESNVKIMMQEYSFLSYSKGKGRGGKGAAIKRAITSATGEFVILMDADGSVPLKEIVKALDLTNYYDLIIFDRYSNRGNRIPFIRRFPSRGFNKLVRIFLGLKINDTQCGYKIIKREYAQRAFNKITISNAFFDVALLYYLKKERAKYIEIPVEYNYDRNSKFHVVELVLGEGISLIAFRIRNSRFYKYVPEKLISLYYRKFRWILEHHHHHH | not failed |
| MDLGYLKSKESGFIAGMILCTAFMGSSFPSGKYLISEEAMPAFYAGGWRFLLAGGLILAFCAAKDGLGAILPASGGSVIKGALFVLVVGCLQTAGTMGFLNLALTTLSASMASLLLFTNPLWVAILAHFALGETLSWHKVVALVCGILGVSLCLGGGADHGLGGIVIALAGSLCWALCTLISKKHKFDKSVFVFTGWQLTLGALVMLAISKLSGEAYDIDRITGWGIACFIWLVGPASIGSFGLWFTALSRRGATVTSSYLFLVPLFSAVFSMMVLGEAVSPHSLIGGAIIIVALWLINLPQTVSAVWRERLGL | failed |
| MKDIIITSQKIKRERNIYLICFLLSFAINIIAILVYTRPWIEIFTQLGYVLVISFFIYFILWIPRILVIGLRHLLRKKK | failed |
| MNKERNIIIAKNIRKFLNDSNMSQKKLAELINIKPSTLSDYLNLRSNPSHGVIQRIADVFEVGKSDIDTTYKDDNDITSIYNKLTPPRQENVLNYANEQLEEQNSKGDNVVDINSYKQEKTPVNVNGCVSAGVGERLHDETLFTEMVKGPIPTHDLALKVNGDSMEPMFKDGEIIFVEKTHNIKNGQIGIFIIEEEAYVKKVFVEDDRLTLVSLNKDYDDLHFYRNESVRLIGKVIL | failed |
| MSSFLRPAVSGQDPFTTGNYRAISSHLAITPPVSVVIPAMNEAENLPYVFKSLPDWIHEVVLVDGNSTDGTVEVARELWPDVKVVEQRGKGKGDALITGFEACTGDIIVMVDADGSADGQEIVSYVSALVSGADFAKGSRFANGGGTSDMTPIRKLGNRVLCAAVNAKFGARYTDLCYGYNAFWRHCLDQIDLDCTGFEVETLMNIRVVKAGLKVQEIPSHEYLRIHGASNLRAVRDGLRVLKVILKERSNRRALRSRPHAMQLNSGQGEVSLEHHHHHH | not failed |
| MWGRLLLWPLVLGFSLSGGTQTPSVYDESGSTGGGDDSTPSILPAPRGYPGQVCANDSDTLELPDSSRALLLGWVPTRLVPALYGLVLVVGLPANGLALWVLATQAPRLPSTMLLMNLATADLLLALALPPRIAYHLRGQRWPFGEAACRLATAALYGHMYGSVLLLAAVSLDRYLALVHPLRARALRGRRLALGLCMAAWLMAAALALPLTLQRQTFRLARSDRVLCHDALPLDAQASHWQPAFTCLALLGCFLPLLAMLLCYGATLHTLAASGRRYGHALRLTAVVLASAVAFFVPSNLLLLLHYSDPSPSAWGNLYGAYVPSLALSTLNSCVDPFIYYYVSAEFRDKVRAGLFQRSPGDTVASKASAEGGSRGMGTHSSLLQ | failed |
| MSDKLLIMFHGVGSNGVDLLPIAQYWQRQIDGLDIAYPNAPFPFMHSHEVFEWFSLTGITPQNRYERIVDAREYFDQTILRTLQEHKFQGDLSQLIFCGFSQGTIMCLDAIVSGRWSVAGCIGFSGRLASPVESDVRTTKISLMHGEADAVIAVEEGREAYHTLNEAGFDVQLETYTGLGHSVNELELKKGLEFLQAL | failed |
| MTPEQLMSLRATFRSPRRLLTESLAGLVVALALIPEAIAFSVIAGVDPRIGLFASFTMGVVTAIVGGRPAMISAATGAVALVIAPVMKEHGLDYLIATIILAGVFQIILAVLGVTKLMRFIPRSVMIGFVNALAILVFMSQMPELFDVPWMVYPIVVVGLVIVFGLPRITTAIPAPLVAIVAITLVTVLGNVDVPTVSDKGELPDSLPGFFLPNVPLNLETFQIIAPFALSMALVGLLESLMTAKLVDDITDTRSNKTRVSWGQGAANIVTGFLGGLGGCAVIGQTMINVKGSGARSRLSTFLAGVFLLILVVVLGDVVGMIPMAALVAVMIFVSLITFDWHSIRPSTLKRLPKSETAVMLITVAAVVATHNLAVGVGVGVVTAMVLFARRVAHFATVERTELELNGERVATYTVDGELFFASSNDLYTQFDYAKDSSDGIDRVIIDLHGSHIWDASTVAVLDSVTEKYRNHGREVEFIGLNEASVRMRERLAGKLNS | failed |
| MIDHRPTSWSRLCTALTSGASCTIGGQAVMEGVMMRNGDRLAIAMRRPDGEIVAESRPWFSLTRSAWLKRPFVRGFPILVETLVNGIKALNRSAEQAVEGETGEELKPWQLAATLAVSVAMALGLFVVVPHLFSIGMKLLGLGGDVEGLSFHMWDGFFKFAVFIGYIVAISFVPDIRRVFQYHGAEHKVIRAFEAAGDVTPDTAMHHSRLHPRCGTTFLLFVLSISIILHAVLVPLLMLVWTPSGAFAKHGVTVLFKLLLMIPISALAYETIRYAARLGEGLTGTLLRAPGMLLQKLTTGEPDREQLEVAIVALREALGDDAPQSVRAPAYRHLE | failed |
| MDVGESNERVKDDSALQASPRSPLSSIDLAIDGAMNASIEQLYHNVCEMESSDDQSPSRASFISYGAESRIDLELRHLVGDVGEEGESKKEIILEKKEESNGEGSLSQKKPLSNGKKVAKTSPNNPKMPGSRISSRKSPDLGKVSVDEESPELGVVLLKQARELVSSGENLNKALDLALRAVKVFEKCGEGEKQLGLNLVMSLHILAAIYAGLGRYNDAVPVLERSIEIPMIEDGEDHALAKFAGCMQLGDMYGLMGQVENSIMLYTAGLEIQRQVLGESDARVGETCRYLAEAHVQAMQFEEASRLCQMALDIHKENGAAATASIEEAADRKLMGLICDAKGDYEVALEHYVLASMAMSSQNHREDVAAVDCSIGDAYMSLARFDEAIFAYQKALAVFKQGKGETHSSVALVYVRLADLYNKIGKTRDSKSYCENALKIYLKPTPGTPMEEVATGFIEISAIYQSMNELDQALKLLRRALKIYANAPGQQNTIAGIEAQMGVVTYMMGNYSESYDIFKSAISKFRNSGEKKTALFGIALNQMGLACVQRYAINEAADLFEEAKTILEKECGPYHPDTLAVYSNLAGTYDAMGRLDDAIEILEYVVGTREEKLGTANPEVEDEKQRLAALLKEAGRGRSKRNRALLTLLDNNPEIANGQRPVY | failed |
